Measurements: patent US11472877 (Alector, dated 2022)
Changes are numbered by the printed parent chain.

T1: human TREM2 on BWZ cells (human, UniProt Q9NZC2 19-230)
T1 construct: whole, on cells; not tied to the cell line; also called BWZ Human TREM2
T1 sequence (looked up): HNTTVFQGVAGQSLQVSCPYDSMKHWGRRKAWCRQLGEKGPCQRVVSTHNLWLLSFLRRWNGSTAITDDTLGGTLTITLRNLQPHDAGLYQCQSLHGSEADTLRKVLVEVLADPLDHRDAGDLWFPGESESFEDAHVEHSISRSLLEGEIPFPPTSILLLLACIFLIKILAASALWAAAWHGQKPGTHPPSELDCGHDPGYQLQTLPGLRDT

T2: mouse TREM2 on BWZ cells (mouse, UniProt Q99NH8 19-227)
T2 construct: whole, on cells; also called BWZ Mouse TREM2
T2 sequence (looked up): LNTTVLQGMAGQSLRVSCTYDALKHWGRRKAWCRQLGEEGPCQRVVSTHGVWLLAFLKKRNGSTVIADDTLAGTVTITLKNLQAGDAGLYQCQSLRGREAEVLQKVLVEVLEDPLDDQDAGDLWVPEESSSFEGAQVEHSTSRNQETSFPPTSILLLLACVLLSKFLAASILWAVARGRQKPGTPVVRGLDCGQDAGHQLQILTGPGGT

T3: mouse TREM1 on CHO cells (mouse, UniProt Q9JKE2 21-230)
T3 construct: also called CHO-mT1
T3 sequence: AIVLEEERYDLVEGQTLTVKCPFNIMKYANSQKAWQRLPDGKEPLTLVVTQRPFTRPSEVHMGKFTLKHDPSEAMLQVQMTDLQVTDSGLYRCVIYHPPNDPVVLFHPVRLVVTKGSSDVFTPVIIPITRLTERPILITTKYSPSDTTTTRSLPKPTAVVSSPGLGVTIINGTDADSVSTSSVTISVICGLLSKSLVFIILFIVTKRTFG

B1: T1-13 (antibody, IgG1, V domains shown)
VH: EVQLVESGGGLVKPGGSLRLSCAASGFTFSSYSMNWVRQAPGKGLEWVSSISSSSNYIYYADSVKGRFTISRDNAKNSLYLQMNSLRAEDTAVYYCARGRYRRTGSLDVWGQGTMVTVSS
VL: EIVLTQSPGTLSLSPGERATLSCRASQSVSSSFLAWYQQKPGQAPRLLIYGASSRATGIPDRFSGSGSGTDFTLTISRLEPEDFAVYYCQQLDSHPPTFGGGTKVEIK
notes: huIgG1; also called TI-13; ADI-19080
B2: T1-16 (antibody, IgG1, V domains shown)
VH: EVQLVESGGGLVQPGRSLRLSCAASGFTFDDYAMHWVRQAPGKGLEWVSGISWNSGSIGYADSVKGRFTISRDNAKNSLYLQMNSLRAEDTALYYCAKGPRMSGWWADWGQGTLVTVSS
VL: DIQMTQSPSSVSASVGDRVTITCRASQGISSWLAWYQQKPGKAPKLLIYAASSLQSGVPSRFSGSGSGTDFTLTISSLQPEDFATYYCQQADTLPITFGGGTKVEIK
notes: huIgG1; also called TI-16; ADI-19083
B3: T1-19 (antibody, IgG1, V domains shown)
VH: EVQLVESGGGLVQPGGSLRLSCAASGFTFSDHHMDWVRQAPGKGLEWVGRTRNKANSYTTEYAASVKGRFTISRDDSKNSLYLQMNSLKTEDTAVYYCARGPLGYKLWGQGTLVTVSS
VL: B2 VL with S53N, D92N, T93S, L94F, I96L
notes: huIgG1; also called TI-19; ADI-19086
B4: T1-20 (antibody, IgG1, V domains shown)
VH: EVQLVESGGGLVQPGGSLRLSCAASGFTFSSYWMSWVRQAPGKGLEWVANIKQDGSEKYYVDSVKGRFTISRDNAKNSLYLQMNSLRAEDTAVYYCARDAPQLGLDVWGQGTMVTVSS
VL: not shown
notes: huIgG1; also called TI-20; ADI-19087
B5: T1-21 (antibody, IgG1, V domains shown)
VH: EVQLVESGGGLVQPGGSLRLSCAASGFTFSSYSMNWVRQAPGKGLEWVSYISSSSSTIYYADSVKGRFTISRDNAKNSLYLQMNSLRAEDTAVYYCARGGPLGYGDYKGMDVWGQGTTVTVSS
VL: DIQLTQSPSSLSASVGDRVTITCRASQSISSFLNWYQQKPGKAPKLLIYAASSLQSGVPSRFSGSGSGTDFTLTISSLQPEDFATYYCQQSYSDLTFGGGTKVEIK
notes: huIgG1; also called TI-21; ADI-19088
B6: T1-24 (antibody, IgG1, V domains shown)
VH: B2 VH with S52T, M102L, S103L, G104S, W105A, W106L, A107D, D108V, L114M
VL: DIQMTQSPSTLSASVGDRVTITCRASQSISSWLAWYQQKPGKAPKLLIYKASSLESGVPSRFSGSGSGTEFTLTISSLQPDDFATYYCQQDSIYPITFGGGTKVEIK
notes: huIgG1; also called TI-24; ADI-19150
B7: T1-23 (antibody, IgG1, V domains shown)
VH: B2 VH with S52T, M102L, S103L, G104S, W105A, W106L, A107D, D108V, L114M
VL: B6 VL with S30G, D91H, S92Q, I93S, Y94F, P95S, I96P
notes: huIgG1; also called TI-23; ADI-19090
B8: T1-25 (antibody, IgG1, V domains shown)
VH: B2 VH with P100G, R101S, M102R, S103Y, G104S, W105H, W106F, A107D, D108Y
VL: EIVLTQSPATLSLSPGERATLSCRASQSVSSYLAWYQQKPGQAPRLLIYDASNRATGIPARFSGSGSGTDFTLTISSLEPEDFAVYYCQQRSVLPLTFGGGTKVEIK
notes: huIgG1; also called TI-25; ADI-19092
B9: T1-26 (antibody, IgG1, V domains shown)
VH: QVQLVQSGAEVKKPGASVKVSCKASGYTFTSYYIHWVRQAPGQGLEWMGIINPSGGSTSYAQKFQGRVTMTRDTSTSTVYMELSSLRSEDTAVYYCARDSAQETYYYGMDVWGQGTTVTVSS
VL: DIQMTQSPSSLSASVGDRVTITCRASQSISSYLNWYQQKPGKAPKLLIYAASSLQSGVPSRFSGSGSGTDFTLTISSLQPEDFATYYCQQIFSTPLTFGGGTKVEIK
notes: huIgG1; also called TI-26
B10: T1-11 (antibody, IgG1, V domains shown)
VH: QLQLQESGPGLVKPSETLSLTCTVSGGSISSSSYYWGWIRQPPGKGLEWIGSIYYSGSTYYNPSLKSRVTISVDTSKNQFSLKLSSVTAADTAVYYCARSGEYGFDLWGRGTLVTVSS
VL: not shown
notes: huIgG1; also called TI-11; ADI-19078
B11: T1-12 (antibody, IgG1, V domains shown)
VH: QLQLQESGPGLVKPSETLSLTCTVSGGSISSSSYYWGWIRQPPGKGLEWIGSIYYSGSTYYNPSLKSRVTISVDTSKNQFSLKLSSVTAADTAVYYCARGGGYPWEAFDYWGKGTTVTVSS
VL: B8 VL with R91Y, S92T, V93S, L94W
notes: huIgG1; also called TI-12; ADI-19079
B12: T1-14 (antibody, IgG1, V domains shown)
VH: QVQLVESGGGVVQPGRSLRLSCAASGFTFSSYGMHWVRQAPGKGLEWVAVISYDGSNKYYADSVKGRFTISRDNSKNTLYLQMNSLRAEDTAVYYCARRSSGDYLDVWGQGTMVTVSS
VL: not shown
notes: huIgG1; also called TI-14; ADI-19081
B13: T1-15 (antibody, IgG1, V domains shown)
VH: EVQLVESGGGLVKPGGSLRLSCAASGFTFSSYSMNWVRQAPGKGLEWVSSISSSSSYIYYADSVKGRFTISRDNAKNSLYLQMNSLRAEDTAVYYCARRGGSYDAFQHWGQGTLVTVSS
VL: B1 VL with F33Y, L92A, D93F, S94I, H95S
notes: huIgG1; also called TI-15; ADI-19082
B14: T1-17 (antibody, IgG1, V domains shown)
VH: QVQLQESGPGLVKPSETLSLTCTVSGGSISSYYWSWIRQPPGKGLEWIGSIYYSGSTNYNPSLKSRVTISVDTSKNQFSLKLSSVTAADTAVYYCARGAPGGRHNWFDPWGQGTLVTVSS
VL: DIQMTQSPSSLSASVGDRVTITCQASQDISNYLNWYQQKPGKAPKLLIYDASNLATGVPSRFSGSGSGTDFTFTISSLQPEDIATYYCQQSDIHPRTFGGGTKVEIK
notes: huIgG1; also called TI-17; ADI-19084
B15: T1-22 (antibody, IgG1, V domains shown)
VH: QVQLQESGPGLVKPSETLSLTCTVSGGSISSYYWSWIRQPPGKGLEWIGHIYYSGSTNYNPSLKSRVTISVDTSKNQFSLKLSSVTAADTAVYYCARDAGRYYGSSSSWYFDLWGRGTLVTVSS
VL: B1 VL with F33Y, L92Y, D93L, S94I, H95P, P97I
notes: huIgG1; also called TI-22; ADI-19089
B16: T1-33 (antibody, IgG1, V domains shown)
VH: QVQLVESGGGVVQPGRSLRLSCAASGFTFSNYGMHWVRQAPGKGLEWVAVIWYDGSNKYYADSVKGRFTISRDNSKNTLYLQMNSLRAEDTAVYYCAKGSTHRGSAYGMDVWGQGTTVTVSS
VL: B2 VL with A91I, D92N, T93D, L94H, I96F
notes: huIgG1; also called TI-33; ADI-19107
B17: T1-34 (antibody, IgG1, V domains shown)
VH: EVQLVESGGGLVKPGGSLRLSCAASGFTFSSYSMNWVRQAPGKGLEWVSSISSSSNYIYYADSVKGRFTISRDNAKNSLYLQMNSLKAEDTAVYYCARRPDDRRGLFQHWGQGTLVTVSS
VL: B6 VL with S30N, Y49S, K50D, D91Y, S92G, I93P, I96Y
notes: huIgG1; also called TI-34; ADI-19108

Legend:
human TREM2 on BWZ cells [1] = target: T1, human TREM2 on BWZ cells; assay: FACS, BWZ cells
mouse TREM2 on BWZ cells [2] = target: T2, mouse TREM2 on BWZ cells; assay: FACS, BWZ cells
mouse TREM2 on BWZ cells [3] = target: T2, mouse TREM2 on BWZ cells; assay: FACS, BWZ mouse TREM2
human TREM2 on BWZ cells [4] = target: T1, human TREM2 on BWZ cells; assay: FACS, BWZ human TREM2
mouse TREM1 on CHO cells = target: T3, mouse TREM1 on CHO cells; assay: FACS, CHO mouse TREM1

Row | Binder | binding result (human TREM2 on BWZ cells [1]) | binding result (mouse TREM2 on BWZ cells [2]) | FOB Fold Over Background (mouse TREM2 on BWZ cells [3]) | FOB Fold Over Background (human TREM2 on BWZ cells [4]) | FOB Fold Over Background (mouse TREM1 on CHO cells)
1 | B1 | no binding | no binding | 1.2 fold | 0.7 fold | 0.5 fold
2 | B2 | no binding | no binding | 1.2 fold | 0.7 fold | 1 fold
3 | B3 | no binding | no binding | 0.8 fold | 0.5 fold | 0.9 fold
4 | B4 | no binding | no binding | 1 fold | 0.6 fold | 0.7 fold
5 | B5 | no binding | no binding | 0.9 fold | 0.5 fold | 0.5 fold
6 | B6 | no binding | no binding | 1.2 fold | 1.4 fold | 1.3 fold
7 | B7 | no binding | no binding | 1.2 fold | 1 fold | 1 fold
8 | B8 | no binding | no binding | 1.3 fold | 0.7 fold | 0.9 fold
9 | B9 | no binding | no binding | 1.2 fold | 0.8 fold | 417 fold
10 | B10 | no binding | no binding |  |  | 
11 | B11 | no binding | no binding |  |  | 
12 | B12 | no binding | no binding |  |  | 
13 | B13 | no binding | no binding |  |  | 
14 | B14 | no binding | no binding |  |  | 
15 | B15 | no binding | no binding |  |  | 
16 | B16 | no binding | no binding |  |  | 
17 | B17 | no binding | no binding |  |  | 
